Results as given in the supplement of paper PMC11502859.

System: HEK293T
Experiment: median enrichment of reporter reads in eGFP-reduced (low/intermediate) vs eGFP-high sorted cells (eGFP-extension fusion abundance) (ratio); higher = stronger loss of eGFP-fusion protein abundance (more destabilising extension)
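Further: lentiviral eGFP-IRES-mCherry reporter pool sorted by FACS 96 h post-transduction, gated on mCherry-high cells, Illumina read counts normalized per million, median across four biological replicates.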

Row | Substance | median enrichment
1 | GTSPAPLRTPPRLDGWAHASHWGPGSRRWAPTLGPRGAANHTGLRPSYPAPSPSTSTFTSPPFHFFLYVFFLLETDSIHIEYN [JUNB] | 4.58
2 | GVFDS [DDX50] | 0.357
3 | GVPAHSCGKGGEGRRARPEQGAGGRAQYLTRAAVLINVPMAGPRSEPASSATVTFSLRDGGGGSLSRWLSRPRSRPWVLSQLG [DUSP9] | 4.83
4 | GVPGHSGLVQTPLL [PAF1] | 0.255
5 | GVSGGEERRADLGRALRTWPRARDSPGSSSPWQAQQHVPQIWKGLPLCQCLGGCHGCPHPLLSVCGVEEPTPASCQDHLGGHT [GPRC5C] | 1.27
6 | GVWLSHGIPGKGLTQ [PTPA] | 2.08
7 | GWGLQGRGLAPFSLSY [NR1H4] | 13.8
8 | GWLPRPGRLLDILFWLNIVLWMVPQSGARILPRRKATNGSGNYIKPETLQQGENCAPGCLAQASLEPSKHFCPS [MAB21L3] | 7.37
9 | GWVRISTTFLDTVK [HBS1L] | 11.5
10 | GYSHPGTEKAADGDCLPQPQQHLGLQLLESYHPRRQAQPGRGEEWAVKMKPHAQSPPIPHAAPPQSQATSCLLLVGGGLLSPS [LGALS9] | 3.94
11 | HFWGVTDFVHGFKVYFYGLVIAEFLFWGEGKGASPLLLALRPRRLLCAANCIYCDALVRAPLPTSPSQLWPQPLSLCCVEWTP [TSPYL2] | 8.4
12 | HHH [His03] | 0.477
13 | HHHH [His04] | 0.323
14 | HHHHH [His05] | 0.675
15 | HHHHHH [His06] | 0.337
16 | HHHHHHH [His07] | 0.367
17 | HHHHHHHH [His08] | 0.421
18 | HHHHHHHHH [His09] | 0.435
19 | HHHHHHHHHH [His10] | 0.464
20 | HLPIPASLARALLGPEQRRTCPTHTAIYSSRHRAPLPYSWSQQPGNGVALHWPLASTLSGAPAVGWGTPAKDQFGCLIPGAVT [CRHR2] | 3.84
21 | HTTGQGCGAGAIPAPFPGPRGLGSLPSHPGLVPPGAPTVEIRRGWNGGRGGAGGPHPSAALGLGPHPSGGPEAGGGNPRGWLF [GNB2] | 0.37

Row | Substance | median enrichment
22 | III [Ile03] | 3.74
23 | IIII [Ile04] | 11.9
24 | IIIII [Ile05] | 8.97
25 | IIIIII [Ile06] | 8.61
26 | IIIIIII [Ile07] | 11
27 | IIIIIIII [Ile08] | 5.38
28 | IIIIIIIII [Ile09] | 9.46
29 | IIIIIIIIII [Ile10] | 6.67
30 | IPVPEHQIPRQLMRLAQCVTEAPGSQQSRAYSAHQAEQATGRDDASGQGSAGDRDYRPAVSGPLQRLPTQGLVGVKHDDNTYT [CCDC137] | 0.864
31 | ITGTACLGTRFPPAAVTMVASTATPGVQSTAPCPPCVPRSRGSVHHSSPRWRAGLPGGSPVALPWLWGWRDLARMNPPVPGTL [PIGQ] | 3.37
32 | IVGPKGKEGKSAPRLGPGTHTPPDHLGNSRALRSRMLTKSNIQSLVNQDAVSPSVWQSVALAAGKLKADFHSYVHVDIHFRSS [RNF150] | 4.94
33 | IYPSPGSPGHSVLSKTRMWYQLWKRKVSCQQYLLPSRQPSQVRHLLRSHREPGVCTSWKSCHQPGHSSHRIDQRACFLIQENE [SPSB4] | 7.01
34 | KAAWPQYGPLFAGFSSSLEPPSVGGPPISPLKPALLFWGDPLLLSFPKHGVPWPAFFLCLWWGWGGLFLLAPSGGGGQVTRSG [JUP] | 4.75
35 | KAGTDLGPKIPFQRN [RBMXL2] | 0.175
36 | KAQKTEALLPLAGSRDI [PNMA5] | 0.301
37 | KARFLAVQFLLKVPLFPKSNY [HBB] | 5.47
38 | KCDKVQPSDLIIHKIIYT [ZNF679] | 15.1
39 | KCEACDKVSIWKSHLKDIGEFILERKLTNVRFLTRLGSDSHLEQHTGLHTGEKPYKCNECGKAFGKQSTLIHHQAIHGVGKLD [ZNF611] | 6.92
40 | KCSIYIYN [REC114] | 18.5
41 | KCYRLNDSASRLPKSKALFRAAHSFPQKSS [HIST1H4E] | 8.92
42 | KDCDFFVKEAVRIIINNSNSLHFSQGVHCS [MAATS1] | 5.42

Row | Substance | median enrichment
43 | KDS [RPAP1] | 0.532
44 | KECSKCGGKS [ZNF671] | 0.995
45 | KEENKQNQPPHHRVLQQDMHTIGA [CDCA7L] | 11.9
46 | KEHLWFT [NPAP1] | 1.2
47 | KELFQFIE [FOXJ3] | 0.495
48 | KFFRMQPGGTWI [DCAF4L2] | 2.96
49 | KFGAQTSP [SPRR3] | 0.603
50 | KFLSF [FNBP4] | 1.62
51 | KFRSPHFSAPRMVLFIFHHL [SLC43A3] | 9.56
52 | KFSLLHYVHKGDHYHWGRNSCLVQCGKFLYIR [PDZRN3] | 12.1
53 | KFVISFICIYVVN [HEATR5B] | 13.7
54 | KGN [CYTL1] | 0.283
55 | KGPEPGWGISAGQRRRLSQLFPDIQGHCSLLPSRTSLLPPTMAGGEQVSQKHPVPRMVLCACPSLLGLPFPLLREDVSLLTCT [KIRREL1] | 7.38
56 | KGPPLLILPTPPPRFSHWPGLGCPYRRSVCSPTVRRGHTLQNTAQNSKKSLHAK [IFI35] | 11.2
57 | KGPPRAQGPGAPRGWGQTKTRQRGERRERAGAGPLGAELGASGGRRLMFYKL [IER5L] | 40.8
58 | KGRGPAESPCCLLEPPADAVLGPT [MBD3] | 1.08
59 | KGRINK [NPIPA1] | 0.274
60 | KHGGFGS [AKAIN1] | 0.558
61 | KHHQSVKGLCGMQEFQTHGQSGLFFLVLRASSEHRSHIAAHREGWNEKWKRGSTFLLGDMNHLCSYYVIRNLVAWPYLAAREP [CFAP61] | 4.22
62 | KHLHVLSNFACPFSSVSE [CYB5R2] | 2.44
63 | KHVVLWVHFV [ABHD3] | 10.5
